# Experimental data published in patent US20200199204A1 (UNITED STATES OF AMERICA AS REPRESENTED BY THE SECRETARY …, published 2020).
# Key:
# Assay in all cases: cell-based or functional assay
# HIV-1 Env of ZM249.1 = HIV-1 Env of ZM249.1 (HIV-1)
# HIV-1 Env of 6405.v4.c34 = HIV-1 Env of 6405.v4.c34 (HIV-1)
# HIV-1 Env of MB201 = HIV-1 Env of MB201 (HIV-1)
# HIV-1 Env of RHPA.7 = HIV-1 Env of RHPA.7 (HIV-1)
# HIV-1 Env of PVO.04 = HIV-1 Env of PVO.04 (HIV-1)
# HIV-1 Env of ZM233.6 = HIV-1 Env of ZM233.6 (HIV-1)
# HIV-1 Env of QH0692.42 = HIV-1 Env of QH0692.42 (HIV-1)
# HIV-1 Env of CAP244.D3 = HIV-1 Env of CAP244.D3 (HIV-1)
# HIV-1 Env of SC422.8 = HIV-1 Env of SC422.8 (HIV-1)
# HIV-1 Env of Q769.d22 = HIV-1 Env of Q769.d22 (HIV-1)
# HIV-1 Env of REJO.67 = HIV-1 Env of REJO.67 (HIV-1)
# HIV-1 Env of Q23.17 = HIV-1 Env of Q23.17 (HIV-1)
# HIV-1 Env of MB539.2B7 = HIV-1 Env of MB539.2B7 (HIV-1)
# HIV-1 Env of TRJO.58 = HIV-1 Env of TRJO.58 (HIV-1)
# HIV-1 Env of 96ZM651.02 = HIV-1 Env of 96ZM651.02 (HIV-1)
# HIV-1 Env of 0260.v5.c36 = HIV-1 Env of 0260.v5.c36 (HIV-1)
# HIV-1 Env of CAP256.SU = HIV-1 Env of CAP256.SU (HIV-1)
# HIV-1 Env of WITO.33 = HIV-1 Env of WITO.33 (HIV-1)
# HIV-1 Env of ZM109.4 = HIV-1 Env of ZM109.4 (HIV-1)
# HIV-1 Env of DU422.01 = HIV-1 Env of DU422.01 (HIV-1)
# HIV-1 Env of RW020.2 = HIV-1 Env of RW020.2 (HIV-1)
# HIV-1 Env of CAP210.E8 = HIV-1 Env of CAP210.E8 (HIV-1)
# HIV-1 Env of KER2018.11 = HIV-1 Env of KER2018.11 (HIV-1)
# HIV-1 Env of AC10.29 = HIV-1 Env of AC10.29 (HIV-1)
# HIV-1 Env of CM244.ec1 = HIV-1 Env of CM244.ec1 (HIV-1)
# HIV-1 Env of Q461.e2 = HIV-1 Env of Q461.e2 (HIV-1)
# HIV-1 Env of Q842.d12 = HIV-1 Env of Q842.d12 (HIV-1)
# HIV-1 Env of ZM135.10a = HIV-1 Env of ZM135.10a (HIV-1)
# HIV-1 Env of ZM197.7 = HIV-1 Env of ZM197.7 (HIV-1)
# HIV-1 Env of CAP256.PI = HIV-1 Env of CAP256.PI (HIV-1)
# HIV-1 Env of CAP45.G3 = HIV-1 Env of CAP45.G3 (HIV-1)
# HIV-1 Env of ZM214.15 = HIV-1 Env of ZM214.15 (HIV-1)
# HIV-1 Env of BG505.w6m = HIV-1 Env of BG505.w6m (HIV-1)
# HIV-1 Env of KER2008.12 = HIV-1 Env of KER2008.12 (HIV-1)
# HIV-1 Env of UG037.8 = HIV-1 Env of UG037.8 (HIV-1)
# HIV-1 Env of THRO.18 = HIV-1 Env of THRO.18 (HIV-1)
# HIV-1 Env of CAAN.A2 = HIV-1 Env of CAAN.A2 (HIV-1)
# HIV-1 Env of Q168.a2 = HIV-1 Env of Q168.a2 (HIV-1)
# HIV-1 Env of 3016.V5.c36 = HIV-1 Env of 3016.V5.c36 (HIV-1)
# HIV-1 Env of DU156.12 = HIV-1 Env of DU156.12 (HIV-1)
# HIV-1 Env of 6535.3 = HIV-1 Env of 6535.3 (HIV-1)
# HIV-1 Env of DU172.17 = HIV-1 Env of DU172.17 (HIV-1)
# HIV-1 Env of C1080.c3 = HIV-1 Env of C1080.c3 (HIV-1)
# HIV-1 Env of ZM53.12 = HIV-1 Env of ZM53.12 (HIV-1)
# HIV-1 Env of TRO.11 = HIV-1 Env of TRO.11 (HIV-1)
# HIV-1 Env of Q259.d2.17 = HIV-1 Env of Q259.d2.17 (HIV-1)
# HIV-1 Env of 191821.E6.1 = HIV-1 Env of 191821.E6.1 (HIV-1)
binder,measurement,setting,value
"CAP256-VRC26.12 (antibody, V domains shown) VH: EVQLVQSGGGVVQPGRSLRLSCAAPYFEFGRYGFHWVRQAPGKGLEWVASISFAGRDYYHSPSVWGRFTISRDNSKNTLYLQMNSLRIEDTALYFCARDLRESECEEWESDYYDFGKKGPCVKPRGVAGGLDLWGQGTMVIVSS VL: QSVLTQPPSVSTAPGQTVTVSCSGGTSNTGNNFVSWYQHLPGTAPKLLIYENNKRPLGVPDRFSGAKSGTSATLAITGLQTGDEGDYYCATWSGSLNIGTGTKVSVLG",neutralization IC50,HIV-1 Env of ZM249.1,> 50 µg/mL
same,neutralization IC50,HIV-1 Env of 6405.v4.c34,> 50 µg/mL
same,neutralization IC50,HIV-1 Env of MB201,> 50 µg/mL
same,neutralization IC50,HIV-1 Env of RHPA.7,> 50 µg/mL
same,neutralization IC50,HIV-1 Env of PVO.04,> 50 µg/mL
same,neutralization IC50,HIV-1 Env of ZM233.6,> 50 µg/mL
same,neutralization IC50,HIV-1 Env of QH0692.42,> 50 µg/mL
same,neutralization IC50,HIV-1 Env of CAP244.D3,> 50 µg/mL
same,neutralization IC50,HIV-1 Env of SC422.8,> 50 µg/mL
same,neutralization IC50,HIV-1 Env of Q769.d22,> 50 µg/mL
same,neutralization IC50,HIV-1 Env of REJO.67,> 50 µg/mL
same,neutralization IC50,HIV-1 Env of Q23.17,> 50 µg/mL
same,neutralization IC50,HIV-1 Env of MB539.2B7,> 50 µg/mL
same,neutralization IC50,HIV-1 Env of TRJO.58,> 50 µg/mL
same,neutralization IC50,HIV-1 Env of 96ZM651.02,> 50 µg/mL
same,neutralization IC50,HIV-1 Env of 0260.v5.c36,> 50 µg/mL
same,neutralization IC50,HIV-1 Env of CAP256.SU,0.032 µg/mL
same,neutralization IC50,HIV-1 Env of WITO.33,> 50 µg/mL
same,neutralization IC50,HIV-1 Env of ZM109.4,> 50 µg/mL
same,neutralization IC50,HIV-1 Env of DU422.01,> 50 µg/mL
same,neutralization IC50,HIV-1 Env of RW020.2,> 50 µg/mL
same,neutralization IC50,HIV-1 Env of CAP210.E8,0.072 µg/mL
same,neutralization IC50,HIV-1 Env of KER2018.11,> 50 µg/mL
same,neutralization IC50,HIV-1 Env of AC10.29,> 50 µg/mL
same,neutralization IC50,HIV-1 Env of CM244.ec1,> 50 µg/mL
same,neutralization IC50,HIV-1 Env of Q461.e2,> 50 µg/mL
same,neutralization IC50,HIV-1 Env of Q842.d12,> 50 µg/mL
same,neutralization IC50,HIV-1 Env of ZM135.10a,> 50 µg/mL
same,neutralization IC50,HIV-1 Env of ZM197.7,> 50 µg/mL
same,neutralization IC50,HIV-1 Env of CAP256.PI,> 50 µg/mL
same,neutralization IC50,HIV-1 Env of CAP45.G3,> 50 µg/mL
same,neutralization IC50,HIV-1 Env of ZM214.15,> 50 µg/mL
same,neutralization IC50,HIV-1 Env of BG505.w6m,> 50 µg/mL
same,neutralization IC50,HIV-1 Env of KER2008.12,> 50 µg/mL
same,neutralization IC50,HIV-1 Env of UG037.8,> 50 µg/mL
same,neutralization IC50,HIV-1 Env of THRO.18,> 50 µg/mL
same,neutralization IC50,HIV-1 Env of CAAN.A2,> 50 µg/mL
same,neutralization IC50,HIV-1 Env of Q168.a2,> 50 µg/mL
same,neutralization IC50,HIV-1 Env of 3016.V5.c36,7.93 µg/mL
same,neutralization IC50,HIV-1 Env of DU156.12,> 50 µg/mL
same,neutralization IC50,HIV-1 Env of 6535.3,> 50 µg/mL
same,neutralization IC50,HIV-1 Env of DU172.17,> 50 µg/mL
same,neutralization IC50,HIV-1 Env of C1080.c3,> 50 µg/mL
same,neutralization IC50,HIV-1 Env of ZM53.12,0.211 µg/mL
same,neutralization IC50,HIV-1 Env of TRO.11,> 50 µg/mL
same,neutralization IC50,HIV-1 Env of Q259.d2.17,> 50 µg/mL
same,neutralization IC50,HIV-1 Env of 191821.E6.1,> 50 µg/mL
